Results reported in US20040018191A1 (SCHERING, published 2004).

target: human IGFR1 on cells (HEK293 cells transfected with IGFR1 DNA; MCF-7 cells expressing endogenous IGFR1) (human, UniProt P08069 31-1367); test: cell-based or functional assay
Sequence (P08069 31-1367 limits assumed): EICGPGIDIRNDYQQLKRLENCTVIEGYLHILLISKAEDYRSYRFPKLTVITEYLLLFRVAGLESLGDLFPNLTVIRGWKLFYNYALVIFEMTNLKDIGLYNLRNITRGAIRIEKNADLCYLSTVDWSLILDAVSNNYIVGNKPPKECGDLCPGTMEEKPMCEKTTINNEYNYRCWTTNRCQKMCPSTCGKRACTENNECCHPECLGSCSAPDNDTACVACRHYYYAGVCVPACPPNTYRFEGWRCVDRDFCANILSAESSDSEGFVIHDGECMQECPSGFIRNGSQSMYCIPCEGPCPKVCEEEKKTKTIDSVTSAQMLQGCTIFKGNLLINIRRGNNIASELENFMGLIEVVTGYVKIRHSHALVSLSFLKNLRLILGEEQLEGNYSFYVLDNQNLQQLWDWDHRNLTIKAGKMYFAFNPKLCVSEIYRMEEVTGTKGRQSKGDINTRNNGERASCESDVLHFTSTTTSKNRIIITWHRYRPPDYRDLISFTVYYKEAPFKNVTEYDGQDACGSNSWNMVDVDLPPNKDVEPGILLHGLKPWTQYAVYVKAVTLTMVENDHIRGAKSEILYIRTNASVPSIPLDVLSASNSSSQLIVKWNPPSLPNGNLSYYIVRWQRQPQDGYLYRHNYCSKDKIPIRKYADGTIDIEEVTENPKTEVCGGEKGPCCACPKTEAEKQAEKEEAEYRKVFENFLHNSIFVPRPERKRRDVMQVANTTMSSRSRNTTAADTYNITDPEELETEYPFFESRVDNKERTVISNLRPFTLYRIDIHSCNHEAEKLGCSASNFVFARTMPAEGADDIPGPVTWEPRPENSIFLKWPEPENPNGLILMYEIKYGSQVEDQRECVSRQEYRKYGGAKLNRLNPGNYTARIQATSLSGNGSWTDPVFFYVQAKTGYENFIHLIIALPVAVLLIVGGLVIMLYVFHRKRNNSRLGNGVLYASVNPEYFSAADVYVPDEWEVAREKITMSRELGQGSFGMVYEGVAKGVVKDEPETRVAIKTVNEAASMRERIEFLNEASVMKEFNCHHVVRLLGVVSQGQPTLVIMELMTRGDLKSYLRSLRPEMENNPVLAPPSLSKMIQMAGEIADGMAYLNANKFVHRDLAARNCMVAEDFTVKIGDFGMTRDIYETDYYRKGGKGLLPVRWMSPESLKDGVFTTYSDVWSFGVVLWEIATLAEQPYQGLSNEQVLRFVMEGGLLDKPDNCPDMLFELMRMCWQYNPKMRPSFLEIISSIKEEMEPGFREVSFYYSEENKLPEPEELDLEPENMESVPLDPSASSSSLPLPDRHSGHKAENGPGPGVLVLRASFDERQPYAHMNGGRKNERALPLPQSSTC

| IGFR1 autophosphorylation (IGF-I stimulated cells, immunoprecipitation and Western blot), IC50 [pM] | Binder |
| --- | --- |
| 100 | 15H12 fully human monoclonal anti-IGFR1 antibody (antibody, IgG3, V domains shown) VH: EVQLVQSGGGLVHPGGSLRLSCAASGFTFSSFAMHWVRQAPGKGLEWISVIDTRGATYYADSVKGRFTISRDNAKNSLYLQMNSLRAEDMAVYYCARLGNFYYGMDVWGQGTTVTVSS VL: EIVLTQVPDFQSVTPKEKVTITCRASQSIGSSLHWYQQKPDQSPKLLIKYASQSLSGVPSRFSGSGSGTDFTLTINSLEAEDAAAYYCHQSSRLPHTFGGGTKVEIKR |
| 100 | 19D12 fully human monoclonal anti-IGFR1 antibody (antibody, V domains shown) VH: EVQLVQSGGGLVHPGGSLRLSCAASGFTFSSFAMHWVRQAPGKGLEWISVIDTRGATYYADSVKGRFTISRDNAKNSLYLQMNSLRAEDMAVYYCARLGNFYYGMDVWGQGTTVTVSS VL: EIVLTQVPDFQSVTPKEKVTITCRASQSIGSSLHWYQQKPDQSPKLLIKYASQSLSGVPSRFSGSGSGTDFTLTINSLEAEDAAAYYCHQSSRLPHTFGGGTKVEIKR |
| 100 | 1H3 fully human monoclonal anti-IGFR1 antibody (antibody, V domains shown) VH: EVQLVQSGGGLVLPGGSLRLSCAGSGFTFSNYAMHWIRQAPGKGLEWVSAIGAGGDTYYADSVKGRFTISRDNAKDSLYLQMNSLRAEDMAVYYCARGRHRNWYYYNKDYWGQGTLVTVSS VL: EIVLTQSPATLSLSPGERATLSCRASQSVSSFLAWYQQKPGQAPRLLIYDASNRAPGIPARFSGSGSGTDFTLTISSLEPEDFAVYYCQQRSNWPRWTFGQGTKVEIKR |
